Experimental data from paper PMC7840605.

What was measured:
[1] = biological target: SARS-CoV-2 S protein (RBD) (SARS-CoV-2) (UniProt P0DTC2); test: ELISA; competitive inhibition ELISA: 1 μg/ml ACE2 coated in 0.01 M Tris pH 8.8; S (RBD) 1 μg/ml pre-incubated with HP-OVA or unmodified OVA at the indicated concentrations was added; antibody detection, absorbance at 450 nm
[2] = biological target: SARS-CoV-2 spike (S) protein (SARS-CoV-2) (UniProt P0DTC2)
[3] = biological target: SARS-CoV-2 spike (S) protein (SARS-CoV-2) (UniProt P0DTC2); remark: listed apart in the source
[4] = biological target: SARS-CoV-2 spike (S) protein (SARS-CoV-2) (UniProt P0DTC2); remark: listed apart in the source

3-hydroxyphthalic anhydride-modified chicken ovalbumin (from UniProt P01012 1-386)
IC50 [1]: 17.9 µM | IC50 of inhibition of S-mediated cell-cell fusion of 293T/SARS-CoV-2/EGFP and Huh 7 cells; blocks S with ACE2 [2]: 1.54 µM | IC50 of inhibition of S-mediated cell-cell fusion of 293T/SARS-CoV-2/EGFP and Vero E6 cells; blocks S with ACE2 [2]: 1.74 µM | IC50 against live SARS-CoV-2 in Vero E6 cells (CPE assay); blocks S with ACE2 [3]: 4.78 µM | IC90 against live SARS-CoV-2 in Vero E6 cells (CPE assay); blocks S with ACE2 [3]: 12.2 µM | IC50 of inhibition of SARS-CoV-2 S pseudovirus entry into 293T/ACE2 cells (luciferase); blocks S with ACE2 [4]: 0.7 µM | IC50 of inhibition of SARS-CoV-2 S pseudovirus entry into Vero E6 cells (luciferase); blocks S with ACE2 [4]: 1.21 µM
